Biological target: the molecule itself
Assay: ESI-IMS-MS of colpeptin1 in 100 mM ammonium acetate buffer (self-association)

B1: Colpeptin1 (P2) (peptide)
peptide: RGLGLALVRRPRGLGLALVRR
Does B1 bind?
Result: binds
